B1: LCN2_apta6 (ssDNA)
DNA: ATACCAGCTTATTCAATTGCACGGTACGCTCTTGAGTGATCCACAATTTCTAACCGCGAGATAGTAAGTGCAATCT
B2: LCN2_apta11 (ssDNA)
DNA: ATACCAGCTTATTCAATTGCGATCGACGCCTGGAGAAGTTCCAGCATTAGCGTAAGTGAGATAGTAAGTGCAATCT
B3: LCN2_apta23 (ssDNA)
DNA: ATACCAGCTTATTCAATTCGTATCAGAATCGCGTGTCACCTTATCTGCCGTATGGGTGAGATAGTAAGTGCAATCT
B4: LCN2_apta20 (ssDNA)
DNA: ATACCAGCTTATTCAATTCCACAAACGGTACTGGACAGTTCTTATATGCTTACATTTGAGATAGTAAGTGCAATCT
B5: LCN2_apta8 (ssDNA)
DNA: ATACCAGCTTATTCAATTCGACAATAGATCAGAACGCTCGAGTTCGCGAGGTGGGGGAGATAGTAAGTGCAATCT
B6: LCN2_apta2 (ssDNA)
DNA: ATACCAGCTTATTCAATTCCACAGTAGGTGAGGTTCACTGAGTTATCCATTGTTGGCAAGATAGTAAGTGCAATCT
B7: LCN2_apta32 (ssDNA)
DNA: ATACCAGCTTATTCAATTCGAGTCATTGTTTTGCAAAGGATTATGCGTTGTAACGGAGAGATAGTAAGTGCAATCT
B8: LCN2_apta24 (ssDNA)
DNA: ATACCAGCTTATTCAATTGGGGAACTGAATTATCAGAGATTTTATTCACCTCGTTGGGAGATAGTAAGTGCAATCT
B9: LCN2_apta30 (ssDNA)
DNA: ATACCAGCTTATTCAATTGCACGGGTAAGAAAACGGGGAACTTGAAAGTAGTGCTGTGAGATAGTAAGTGCAATCT
B10: LCN2_apta31 (ssDNA)
DNA: ATACCAGCTTATTCAATTCCCGATCAGAACATCGGCTCTTATACCCGTTTTGGTCACGAGATAGTAAGTGCAATCT
B11: LCN2_apta4 (ssDNA)
DNA: ATACCAGCTTATTCAATTCGGAGGGCGGAAGCAAAGCGTAACAGAAAGCCAACACGCGAGATAGTAAGTGCAATCT
B12: LCN2_apta3 (ssDNA)
DNA: ATACCAGCTTATTCAATTCCCAAGGGCGAGCTGGCGGCTTGTTGCATAAATTCGTGGAGATAGTAAGTGCAATCT
B13: LCN2_apta7 (ssDNA)
DNA: ATACCAGCTTATTCAATTCCGCGTCACCTCACTGCTCCCACTGCGTTGCGTCTCTAAGATAGTAAGTGCAATCT
B14: LCN2_apta1 (ssDNA)
DNA: ATACCAGCTTATTCAATTGCCACGACTTGGGGAATCCTAAGGGCTGTGAACGCCGTGGAGATAGTAAGTGCAATCT
B15: LCN2_apta34 (ssDNA)
DNA: ATACCAGCTTATTCAATTCGGAGCGGTAGTTTGAGGAGGAAACAACCCGGCCTTGGAGAGATAGTAAGTGCAATCT
B16: LCN2_apta26 (ssDNA)
DNA: ATACCAGCTTATTCAATTCCAACACCTTGGGTATCCTGTTATATTCACTTGTTGAGTAAGATAGTAAGTGCAATCT
B17: LCN2_apta15 (ssDNA)
DNA: ATACCAGCTTATTCAATTCCACACCAGTCCTTGTTCGTAGATCACGGTTTCTTCAGGAAGATAGTAAGTGCAATCT
B18: LCN2_apta18 (ssDNA)
DNA: ATACCAGCTTATTCAATTCCAGCAAGTAAAGGTTATTTACTAGTTAGGGGCTTCTTGAGATAGTAAGTGCAATCT
B19: LCN2_apta17 (ssDNA)
DNA: ATACCAGCTTATTCAATTCACGTGCGACAGGGGGATCTGGCTTTATCCCAGCGTGTTAAGATAGTAAGTGCAATCT
B20: LCN2_apta27 (ssDNA)
DNA: ATACCAGCTTATTCAATTGCGATAATCTTGGTTTTCTTTTCAGTTTCTTTAGGGCGGGAGATAGTAAGTGCAATCT
B21: LCN2_apta29 (ssDNA)
DNA: ATACCAGCTTATTCAATTCCGTGACAAGTTGCAGGGGCTGTGCGGTTCTTTTTTTTTGAGATAGTAAGTGCAATCT
B22: LCN2_apta16 (ssDNA)
DNA: ATACCAGCTTATTCAATTCCGCGTCACCTCACTGCTCCCACCTGCGTTGCGTCTCTAAGATAGTAAGTGCAATCT
B23: LCN2_apta33 (ssDNA)
DNA: ATACCAGCTTATTCAATTCACGACGATAGTGCAGTGGATACATTCGGCCCTTACCATGAGATAGTAAGTGCAATCT
B24: LCN2_apta21 (ssDNA)
DNA: ATACCAGCTTATTCAATTCCGGATTTTCGCACGGCTAGCGGGGAACCACTGTCTGGGAGATAGTAAGTGCAATCT
B25: LCN2_apta19 (ssDNA)
DNA: ATACCAGCTTATTCAATTCGACAAAGGAGCTACGTCTACATAGCGTGGTGAGTGCTTGAGATAGTAAGTGCAATCT
B26: LCN2_apta5 (ssDNA)
DNA: ATACCAGCTTATTCAATTCCCAGCAATCCATTACTTCGTTAGTTCTAATTACCAACCAGATAGTAAGTGCAATCT
B27: LCN2_apta25 (ssDNA)
DNA: ATACCAGCTTATTCAATTGCCACTCGACATGCTTGCCTGTACACTAAAACACTATTCAGATAGTAAGTGCAATCT
B28: LCN2_apta10 (ssDNA)
DNA: ATACCAGCTTATTCAATTGGCAGTAGGGCGGGGGGGAGCATGGAGCACATTCTTGTCGAGATAGTAAGTGCAATCT
B29: LCN2_apta13 (ssDNA)
DNA: ATACCAGCTTATTCAATTCGCGGCCTAACTTTGGAAGTTCCTCAGAATACTCAGTTGAGATAGTAAGTGCAATCT
B30: LCN2_apta22 (ssDNA)
DNA: ATACCAGCTTATTCAATTCCAACGAGGATGCCAAAGAAAGGTGAGGTGGTCCTAAGGGAGATAGTAAGTGCAATCT
B31: LCN2_apta12 (ssDNA)
DNA: ATACCAGCTTATTCAATTCAGGGAAAGGTTACGCGACACATTAGTTTTGAGTCCGTTCAGATAGTAAGTGCAATCT

What follows are binders tested against Lipocalin-2 (LCN2, NGAL) (human, UniProt P80188 21-198) (assay: SPR (BIAcore 3000, CM5 chip); SPR BIAcore 3000, 24 C, LCN2 amine-coupled to CM5 chip; running buffer for the Kd assay not stated (HBS-EP used for SA-chip activation)). Details: protein: recombinant; tags: C-terminal polyhistidine.
Lipocalin-2 (LCN2, NGAL), sequence (P80188 21-198): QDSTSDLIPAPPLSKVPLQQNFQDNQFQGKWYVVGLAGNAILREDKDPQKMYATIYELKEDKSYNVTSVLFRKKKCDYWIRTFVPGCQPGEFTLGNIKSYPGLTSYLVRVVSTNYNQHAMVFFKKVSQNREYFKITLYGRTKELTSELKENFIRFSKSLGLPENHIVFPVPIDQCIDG

In order of falling Kd:
1. B30  8440 nM
2. B18  3380 nM
3. B15  2870 nM
4. B10  1780 nM
5. B24  872 nM
6. B21  565 nM
7. B22  220 nM
8. B3  158 nM
9. B16  118 nM
10. B28  99.9 nM
11. B9  86.4 nM
12. B31  84.5 nM
13. B25  66.6 nM
14. B20  13.9 nM
15. B4  10.9 nM
16. B5  3.42 nM
17. B13  1.1 nM
18. B1  0.801 nM
19. B26  0.0816 nM
20. B11  0.0609 nM
21. B12  0.00719 nM
22. B6  0.00224 nM
23. B14  0.000647 nM

B2: no binding.
B7: no binding.
B8: no binding.
B17: no binding.
B19: no binding.
B23: no binding.
B27: no binding.
B29: no binding.

— article PMC4454046, “Aptamer-based Sandwich Assay and its Clinical Outlooks for Detecting Lipocalin-2 in Hepatocellular Carcinoma (HCC)”
